Measurements reported in article PMC11079029, “Intramolecular autoinhibition regulates the selectivity of PRPF40A tandem WW domains for proline-rich motifs” (Nature Communications, 2024).

Test system: GFP-tagged PRPF40A-Nter-MUT
Assay: SILAC GFP-immunoprecipitation with quantitative mass spectrometry, mutant construct
Type: binding, human (Hela cells)
Conditions: quantitative MS, Hela cells, protein by gene name
Procedure, shortened: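 GFP-tagged PRPF40A N-terminal region (isoform 2, residues 1–221) with PPVP/PALPP motifs mutated to alanines, transiently expressed 24 h in SILAC-labelled HeLa cells alongside GFP control. Lysates (2.5 mg) pulled down on GFP-nanobody beads 1 h at 4 °C; pooled eluates trypsin-digested and quantified by LC-MS/MS on Orbitrap.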

Molecule | Immunoprecipitation enrichment MUT vs WT, log2 FC
LARP7 (protein, UniProt Q4G0J3 1-582, looked up) La-related protein 7: METESGNQEKVMEEESTEKKKEVEKKKRSRVKQVLADIAKQVDFWFGDANLHKDRFLREQIEKSRDGYVDISLLVSFNKMKKLTTDGKLIARALRSSAVVELDLEGTRIRRKKPLGERPKDEDERTVYVELLPKNVNHSWIERVFGKCGNVVYISIPHYKSTGDPKGFAFVEFETKEQAAKAIEFLNNPPEEAPRKPGIFPKTVKNKPIPALRVVEEKKKKKKKKGRMKKEDNIQAKEENMDTSNTSISKMKRSRPTSEGSDIESTEPQKQCSKKKKKRDRVEASSLPEVRTGKRKRSSSEDAESLAPRSKVKKIIQKDIIKEASEASKENRDIEISTEEEKDTGDLKDSSLLKTKRKHKKKHKERHKMGEEVIPLRVLSKSEWMDLKKEYLALQKASMASLKKTISQIKSESEMETDSGVPQNTGMKNEKTANREECRTQEKVNATGPQFVSGVIVKIISTEPLPGRKQVRDTLAAISEVLYVDLLEGDTECHARFKTPEDAQAVINAYTEINKKHCWKLEILSGDHEQRYWQKILVDRQAKLNQPREKKRGTEKLITKAEKIRLAKTQQASKHIRFSEYD | 1.221
NKRF (protein, UniProt O15226 1-690, looked up) NF-kappa-B-repressing factor: MEKILQMAEGIDIGEMPSYDLVLSKPSKGQKRHLSTCDGQNPPKKQAGSKFHARPRFEPVHFVASSSKDERQEDPYGPQTKEVNEQTHFASMPRDIYQDYTQDSFSIQDGNSQYCDSSGFILTKDQPVTANMYFDSGNPAPSTTSQQANSQSTPEPSPSQTFPESVVAEKQYFIEKLTATIWKNLSNPEMTSGSDKINYTYMLTRCIQACKTNPEYIYAPLKEIPPADIPKNKKLLTDGYACEVRCQNIYLTTGYAGSKNGSRDRATELAVKLLQKRIEVRVVRRKFKHTFGEDLVVCQIGMSSYEFPPALKPPEDLVVLGKDASGQPIFNASAKHWTNFVITENANDAIGILNNSASFNKMSIEYKYEMMPNRTWRCRVFLQDHCLAEGYGTKKTSKHAAADEALKILQKTQPTYPSVKSSQCHTGSSPRGSGKKKDIKDLVVYENSSNPVCTLNDTAQFNRMTVEYVYERMTGLRWKCKVILESEVIAEAVGVKKTVKYEAAGEAVKTLKKTQPTVINNLKKGAVEDVISRNEIQGRSAEEAYKQQIKEDNIGNQLLRKMGWTGGGLGKSGEGIREPISVKEQHKREGLGLDVERVNKIAKRDIEQIIRNYARSESHTDLTFSRELTNDERKQIHQIAQKYGLKSKSHGVGHDRYLVVGRKRRKEDLLDQLKQEGQVGHYELVMPQAN | 1.452
FAM120A (protein, UniProt Q9NZB2 1-1118, looked up) Constitutive coactivator of …: MGVQGFQDYIEKHCPSAVVPVELQKLARGSLVGGGRQRPPQTPLRLLVDADNCLHRLYGGFYTDWVSGGQWNHMLGYLAALAKACFGGNIELFVFFNGALEKARLHEWVKRQGNERQTAQQIVSHVQNKGTPPPKVWFLPPVCMAHCIRLALIRFHVKVAQSIEDHHQEVIGFCRENGFHGLVAYDSDYALCNIPYYFSAHALKLSRNGKSLTTSQYLMHEVAKQLDLNPNRFPIFAALLGNHILPDEDLASFHWSLLGPEHPLASLKVRAHQLVLPPCDVVIKAVADYVRNIQDTSDLDAIAKDVFQHSQSRTDDKVIRFKRAIGYYSATSKPMSFHPPHYLAARPGPFGMPGMVPPHVPPQMLNIPQTSLQAKPVAPQVPSPGGAPGQGPYPYSLSEPAPLTLDTSGKNLTEQNSYSNIPHEGKHTPLYERSSPINPAQSGSPNHVDSAYFPGSSTSSSSDNDEGSGGATNHISGNKIGWEKTGSHSEPQARGDPGDQTKAEGSSTASSGSQLAEGKGSQMGTVQPIPCLLSMPTRNHMDITTPPLPPVAPEVLRVAEHRHKKGLMYPYIFHVLTKGEIKIAVSIEDEANKDLPPAALLYRPVRQYVYGVLFSLAESRKKTERLAFRKNRLPPEFSPVIIKEWAAYKGKSPQTPELVEALAFREWTCPNLKRLWLGKAVEDKNRRMRAFLACMRSDTPAMLNPANVPTHLMVLCCVLRYMVQWPGARILRRQELDAFLAQALSPKLYEPDQLQELKIENLDPRGIQLSALFMSGVDMALFANDACGQPIPWEHCCPWMYFDGKLFQSKLLKASREKTPLIDLCDGQADQAAKVEKMRQSVLEGLSFSRQSHTLPFPPPPALPFYPASAYPRHFGPVPPSQGRGRGFAGVCGFGGPYGETVATGPYRAFRVAAASGHCGAFSGSDSSRTSKSQGGVQPIPSQGGKLEIAGTVVGHWAGSRRGRGGRGPFPLQVVSVGGPARGRPRGVISTPVIRTFGRGGRYYGRGYKNQAAIQGRPPYAASAEEVAKELKSKSGESKSSAMSSDGSLAENGVMAEEKPAPQMNGSTGDARAPSHSESALNNDSKTCNTNPHLNALSTDSACRREAALEAAVLNKEE | 1.247
